According to the supplement of paper PMC12764529:
± gives the half width of the 95% confidence interval.

What was measured:
[1] = folding stability dG unfold from trypsin proteolysis; higher = more stable
Outline: (§1)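 Bayesian fitting of sequencing counts gave K50 for each design. Unfolding free energy followed by setting this against a sequence-predicted unfolded-state K50 and a shared folded-state K50, either per protease or with trypsin and chymotrypsin combined. The designs, under 80 residues and lacking cysteine, were digested in a PA-tagged cDNA display format at 11 threefold-diluted protease concentrations and without protease, and only those with AlphaFold2 dimer inter-PAE above 15 were kept.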

[2] = folding stability dG unfold (combined trypsin and chymotrypsin); higher = more stable
Outline: as §1

[3] = folding stability dG unfold from chymotrypsin proteolysis; higher = more stable
Outline: as §1

Row | Sequence | folding stability dG unfold [1] [kcal/mol] | folding stability dG unfold [2] [kcal/mol] | folding stability dG unfold [3] [kcal/mol]
1 | SAGGSAGGSAGGSASMSVTLERLPNGTVVKITTKSVDPSTGSVDYKPSVEKIPPGVALDSAGGSAGGSAGGS [r4_72_JUSTAS] | -0.437 ± 0.18 | -0.515 ± 0.28 | -0.448 ± 0.1
2 | SAGDWELVELRPFRFPNGLEALVAVYRNPADERLVVLTVVREPEGRLVAVALVEFDGDKLVSESVFSPGSAG [r14_828_TrMRF] | 2.62 ± 0.079 | 3.4 ± 0.12 | 3.755 ± 0.025
3 | SAGGSAGGSAGMKITIDGKVAEIEEVEVDGKLYYFIRVEGRLYVFDVETGEIREISPEDLSAGGSAGGSAGG [r11_9_TrROS_Hall] | 3.14 ± 0.074 | 3.91 ± 0.054 | 4.16 ± 0.033
4 | SAGGMTTTVELELEDPVNLGVPVRVEATVTYEKDPNGNPVAKAEITTTYPDGKEEKTTIPVSELKGLGSAGG [r13_787_JUSTAS] | 0.294 ± 0.059 | -0.00381 ± 0.17 | -0.603 ± 0.13
5 | SAGGKKIVIVAPPGMSPEELAELLKKLFPGLEVEVREVSAEELKKLKPGDEVLVIEVDGRLYAVKIKPSAGG [r13_649_TrROS_Hall] | 2.05 ± 0.11 | 3.21 ± 0.12 | 3.67 ± 0.14
6 | SAGGSAGGSAGKMYKAKVKIGNKEYEAYIEENVPEDGTITVKFDDKTIEIKAENIEVYDESAGGSAGGSAGG [r11_247_TrMRF] | 0.905 ± 0.031 | 1.15 ± 0.067 | 1.32 ± 0.11
7 | SAGGSPDPNQKPVTVRVEIMIMRPDPNGKWEMRPIEFEMTIGDVEEFLEELEKEPGYMIMVDIEIYSAGGSA [r2_270_TrROS] | 2.33 ± 0.13 | 3.65 ± 0.28 | 3.97 ± 0.25
8 | SEKRMEVEIKIPITMVVPKEMFEPDPDNGRYRFPDNGKPIRPNQVHPMPIEIKGPMPPGDAQKLLKDLLKSA [r9_165_TrROS] | -0.347 ± 0.1 | -0.203 ± 0.16 | -0.119 ± 0.11
9 | SAGGSAGGSASPIHATVSVDPETGTYTVHYPDGSTKTITGLSPEEVAALAKEMGIDEITLESAGGSAGGSAG [r3_78_JUSTAS] | 3 ± 0.08 | 2.81 ± 0.044 | 2.64 ± 0.034
10 | SAGGSAGGSAGMIVFTLPDGGLALVLNIEYELEPDEDGNLIIRPRISLSIFPVPADFPILSAGGSAGGSAGG [r17_480_TrMRF] | 3.2 ± 0.09 | 4.19 ± 0.12 | 4.51 ± 0.068
11 | SPLKPGDVYTEPGGPLLRVEKVTLSEDPNKFPKKLEIELVPIPPPTPTLEEYTLPNGERRTLVLFEFDGPSA [r9_914_JUSTAS] | -0.308 ± 0.31 | -0.217 ± 0.42 | -1.17e-05 ± 0.5
12 | SKKVEVKEIEIKLADGSKVKAKIVKLPDGTYRIFVEFPDGRVAVFEIDVNGKIVKVKPLEVFSLEELKKKSA [r9_1075_TrROS_Hall] | 1.07 ± 0.12 | 1.17 ± 0.22 | 0.836 ± 0.47
13 | SAGGSAGGSAMLVALVRVPGTDKPVVARLPREIGREAAEELLREAFPDAEVLEIVEVPEEELSAGGSAGGSA [r18_242_TrMRF] | 0.447 ± 0.031 | 1.42 ± 0.031 | 1.712 ± 0.012
14 | SKKPKVEIEIEIPSVISATPIPNTDEVLVNVPYRVKIKVIGEGPPKEVEVDLPGIMLVSDFIDELKKLLGSA [r9_656_TrMRF] | 1.72 ± 0.072 | 1.74 ± 0.098 | 1.74 ± 0.046
15 | GMSVTSYETDPNTGGPSISISSAPDPKTGLLSAPVTVYDPKTGQSKTINLTATSSEELAAKIAELLPASLLS [r1_156_JUSTAS] | 1.39 ± 0.024 | 0.97 ± 0.098 | 0.166 ± 0.17
16 | SAGGMVTKTYEFEGENGGKILIEVKEDPDKPVVTVKFYRPDGKPLFEAEIEADSIEDAIQQAKDLLASAGGS [r16_158_TrMRF] | 3.45 ± 0.12 | 3.66 ± 0.13 | 3.76 ± 0.11
17 | SAGMNKIYRLNEPVKNITFSSSELENLFKDPNIDRIAVFHPDKPAIIPFPDGKISGEFPPNITIVLFGSAGG [r19_152_TrMRF] | 0.661 ± 0.15 | 0.385 ± 0.2 | -0.0733 ± 0.5
18 | SAGWFVRIEIEPPGEKREIMIPFSWDEARELLKDLGLEVEVDPESPTFEFKLPNYQIKVEFMPIPPGQMSAG [r5_248_TrROS] | 2.34 ± 0.12 | 3.21 ± 0.12 | 3.6 ± 0.049
19 | SALLENGGIFISINLEWDPEYNWIRIKRFTIYWNGKVIATQPQWIPVPPPPPPPPPEREYNPNDPDNNKSAG [r14_571_TrROS] | 3.19 ± 0.19 | 4.56 ± 0.16 | 5.06 ± 0.085
20 | SAGGSAGGSAGGSPNIYYTSGPFALVVTLPNGTKIVIPGSNIENLKNYNLISVEVVSTDSAGGSAGGSAGGS [r4_348_TrMRF] | 0.528 ± 0.065 | 1.4 ± 0.15 | 1.81 ± 0.1
21 | SAGGSAGGSAGLEVPEGYEVKILDVNPETLPNGERVVSMTVLIIDPDGNPRKVEFRFYAPSAGGSAGGSAGG [r11_570_TrMRF] | 2.47 ± 0.17 | 2.27 ± 0.084 | 2.1 ± 0.063

Row | Sequence | folding stability dG unfold [1] [kcal/mol] | folding stability dG unfold [2] [kcal/mol] | folding stability dG unfold [3] [kcal/mol]
22 | SAMIIIRVKSKEELEEAIRRLAEELGIEDATLEQIREALLRAGAKIVSIERDPEREDYVLIVIELPPEPSAG [r14_678_TrROS_Hall] | 4.01 ± 0.1 | 4.05 ± 0.071 | 4.1 ± 0.084
23 | SAGGSAGGSAGGPDPEAYPFRYPDREFVLVRNPDEPDTYTILYPDDKVETVPAEDILPESAGGSAGGSAGGS [r10_556_TrMRF] | 0.473 ± 0.027 | 0.3 ± 0.06 | -0.0442 ± 0.098
24 | SPEAVAEALRKLGFDLDIERIDVEPLPDGTYRVTVTRGDKPVFTVTVTAPPPPPPVFVVRDADGTERLVRSA [r9_442_TrMRF] | 0.704 ± 0.054 | 1.98 ± 0.036 | 2.4 ± 0.03
25 | SAGGSARIEPVGDYLVIEIPFRYPDGMEWYIEIVINPEEGKIPVDQYPPGDGEPVGEKTLPADEVKSAGGSA [r15_671_TrROS] | 0.507 ± 0.14 | 1.52 ± 0.23 | 2.27 ± 0.11
26 | SAGDWYVVIEIKHPNGRTITFVLRFDSPDELKDEILDNMRDEYGGPPEDMPITDIRVEVFDPKTGKPIWSAG [r5_482_TrROS] | 2.65 ± 0.18 | 3.15 ± 0.14 | 3.36 ± 0.09
27 | SAGGSAGGSAKKTLTVTVKAEPSEGAPAIAKEVAEKLGLPDAKVLSISYDPETGELTITFEYSAGGSAGGSA [r18_481_TrMRF] | 4.21 ± 0.2 | 4.61 ± 0.14 | 4.56 ± 0.097
28 | SAGGSHEYTHEYRIPGGYAIRIKTKWRFNPGNNNIQIEEPDIELVPLPPVPPPPVPPEDADKNGIPPDDSAG [r5_393_TrROS] | 1.19 ± 0.019 | 1.74 ± 0.12 | 2.29 ± 0.12
29 | KIHILPPGEPAKDPNGKTYEFPNMRIHRNPKNGKPTIYIPMDPEARDQGNPEALQWLRELVEELNIDKVEPS [r1_438_TrROS] | -0.623 ± 0.45 | -0.156 ± 0.16 | 0.0516 ± 0.16
30 | SAGGSADELLDKLGLPPDNIRKIKPVEPNPNGMRQLELEWPYKENGKEWRITIMYSPDGIMIDIEPSAGGSA [r15_813_TrROS] | 0.834 ± 0.061 | 1.57 ± 0.1 | 1.87 ± 0.053
31 | SAGRVRLEIVIMIPIDPEQLENLPPSIRDPNGMEIYENGDMIMIKMPIPIPPPPVPDPDGKKMTPEELSAGG [r19_148_TrROS] | 1.44 ± 0.052 | 0.982 ± 0.24 | 0.493 ± 0.11
32 | SASLGISKIETSSLPNGTTVVTVTFSKPNLKVTLTKNPDGTITITLSPEVKKLPEEVKKLVEELAAKLSSAG [r14_555_JUSTAS] | 3.97 ± 0.1 | 3.95 ± 0.095 | 3.97 ± 0.048
33 | SAGSSMSSTVRVEVTLTNPVTEVSPDGKTYTTPGDTVAVPVLINVSTTTYYNSSNPSDVVTETTTTVALSAG [r14_274_JUSTAS] | 1.07 ± 0.026 | 1.18 ± 0.09 | 1.22 ± 0.19
34 | SAGGSAGGSAGDFDIKTVKNPPGTLMIVMPDNGWIQQIKFDPKNGKFKIDEIKWIPLDDISAGGSAGGSAGG [r11_352_TrROS] | 0.499 ± 0.028 | 0.585 ± 0.11 | 0.602 ± 0.066
35 | SAGGKIEELAKEIAQEHNIKSVDVQTTGGYPKVNVRFRNPKEGRMYRIKIHVPPDGNIKISIEPQELSAGGS [r16_433_TrROS] | 1.87 ± 0.034 | 1.92 ± 0.26 | 2.08 ± 0.13
36 | SAGGSAGGSAGGKPKVILLEGIKKIEVKDGKVTIEADEPVLLVIDEDGNVHIYRLPKEDLSAGGSAGGSAGG [r7_29_TrROS_Hall] | 1.03 ± 0.07 | 1.35 ± 0.11 | 1.38 ± 0.099
37 | SAGMVTISVTRPSSGTYVLNISNPLTGETETITLSTADPAAFKATAEAIAAELEAKGYPVKINLTPTAGSAG [r5_815_JUSTAS] | 3.6 ± 0.063 | 3.73 ± 0.048 | 3.788 ± 0.014
38 | SAGGSAGGSALPDLEFPFELVEEVEVPVYDPLSDEVLGTVRVWKVRVPGGPELTLVEFDPESAGGSAGGSAG [r3_166_TrMRF] | 1.27 ± 0.017 | 1.35 ± 0.061 | 1.3 ± 0.047
39 | SAGGSPIKPITFEFPNIKVTVYRMPNKYIMVHIEFRENGEPYYLMITFKLDPDNKLKATSIGPMPPSAGGSA [r2_171_TrROS] | 2.69 ± 0.1 | 4.01 ± 0.093 | 4.537 ± 0.037
40 | SLTLTDPVLVLVEVDLYNPETGAPTKRSLAVLVPPGTPVTVTLPGVHPDARVRVTVYTPNGKPLGEFELPSA [r9_478_TrMRF] | 2.1 ± 0.13 | 2.26 ± 0.14 | 2.12 ± 0.12
41 | SAGGSIRELAKELAREFAEEHGIKEVEVKVEPYPNGWIKIEVSVEGPNGEPIGEWPIQIPIPPDQISAGGSA [r2_153_TrROS] | 0.199 ± 0.071 | 0.561 ± 0.11 | 0.74 ± 0.018
42 | SAGGSAAPEDTLVEEEVEIVTEETDPKLGGKKIVTTKVKRLIRYFPEKGELEVETVETETTVYPNESAGGSA [r15_517_JUSTAS] | -0.644 ± 0.47 | 0.111 ± 0.1 | 0.416 ± 0.084
